What was measured:
[1] = tested on: proteases trypsin and α-chymotrypsin; assay: Protease digestion stability (trypsin and α-chymotrypsin, SDS-PAGE, Coomassie blue); type: in vitro ADME; details: trypsin 0.01 mg/ml and α-chymotrypsin 0.01 mg/ml, 37° C., 30 min; versus wild type; FIG. 3A
Protocol: Recombinant Amuc_1100 wild type (WT) and mutant protein are digested by proteases trypsin (0.01 mg/ml) and α-chymotrypsin (0.01 mg/ml) at […] for 30 min. The samples are subjected to SDS-PAGE gel electrophoresis and Coomassie blue staining. Lane A: Amuc_1100 (31-317, Y289A) without proteases; Lane B: Amuc_1100 (31-317, Y289A) with proteases; Lane C: Amuc_1100 (31-317, WT) without proteases; Lane D: Amuc_1100 (31-317, WT) with proteases; MW: molecular weight marker (KD).)
Some mutants of the […] (31-317) may reduce protein degradation by proteases. The amino acid sequence (SEQ ID NO: 146) and nucleotide sequence (SEQ ID NO: 147) of Amuc_1100 (31-317, Y289A) with 6×His tag at the C-terminus expressed by the plasmid described above (FIG. 1) were shown in FIG. 2. The recombinant Amuc_1100 (31-317) protein and mutant protein (31-317, Y289A) were digested by proteases trypsin (0.01 mg/ml) and α-chymotrypsin (0.01 mg/ml) at 37° C. for 30 min. The samples were then subjected to SDS-PAGE gel electrophoresis and Coomassie blue staining.

[2] = tested on: spontaneous breast cancer in MMTV-PyVT transgenic C57BL/6 female mice; assay: Spontaneous breast cancer model, tumor growth rate and H&E staining; type: in vivo; details: Amuc_1100 proteins 3 μg/kg oral gavage daily 4 weeks; anti-PD-1 10 mg/kg i.v. every three days 3 weeks; FIG. 4, FIG. 5
Protocol: The MMTV-PyVT transgenic C57BL/6 female mice were used to develop spontaneous breast cancer. Mice at age of 9.5 weeks were randomly divided into 6 groups with 4-5 mice in each group and were subjected to agent treatment. The mice in the control group were treated with PBS by oral gavage daily for 4 weeks, plus PBS i.v. injection daily after one week of oral gavage for 3 weeks. […] All the spontaneously developed tumors were monitored. Tumor sizes were measured twice every week. The health status of mice was closely monitored. Tumor growth rate of each tumor in mouse following agent treatment was analyzed. […]

[3] = Body weight gain in mouse model; type: in vivo, mice; details: 3 μg/kg oral gavage daily for 4 weeks; compared to PBS control group
Protocol: Mice at age of 9.5 weeks were randomly divided into 3 groups with 4-5 mice in each group and were subjected to agent treatment. The mice in the control group and test groups were treated with PBS, Amuc_1100 (31-317), or Amuc_1100 (31-317, Y289A) (3 μg/kg) by oral gavage daily for 4 weeks, respectively. The body weight of each mouse in each group was measured twice every week.

TLR2 [4] = biological target: T1, TLR2 (Homo sapiens, UniProt O60603); assay: TLR2 reporter gene assay in HEK293 cells (QUANTI-Blue); type: cell-based; parameters: host or cells: HEK293; details: HEK293 cells expressing human TLR2 and reporter gene; FIG. 3B
T1 sequence (O60603 21-784): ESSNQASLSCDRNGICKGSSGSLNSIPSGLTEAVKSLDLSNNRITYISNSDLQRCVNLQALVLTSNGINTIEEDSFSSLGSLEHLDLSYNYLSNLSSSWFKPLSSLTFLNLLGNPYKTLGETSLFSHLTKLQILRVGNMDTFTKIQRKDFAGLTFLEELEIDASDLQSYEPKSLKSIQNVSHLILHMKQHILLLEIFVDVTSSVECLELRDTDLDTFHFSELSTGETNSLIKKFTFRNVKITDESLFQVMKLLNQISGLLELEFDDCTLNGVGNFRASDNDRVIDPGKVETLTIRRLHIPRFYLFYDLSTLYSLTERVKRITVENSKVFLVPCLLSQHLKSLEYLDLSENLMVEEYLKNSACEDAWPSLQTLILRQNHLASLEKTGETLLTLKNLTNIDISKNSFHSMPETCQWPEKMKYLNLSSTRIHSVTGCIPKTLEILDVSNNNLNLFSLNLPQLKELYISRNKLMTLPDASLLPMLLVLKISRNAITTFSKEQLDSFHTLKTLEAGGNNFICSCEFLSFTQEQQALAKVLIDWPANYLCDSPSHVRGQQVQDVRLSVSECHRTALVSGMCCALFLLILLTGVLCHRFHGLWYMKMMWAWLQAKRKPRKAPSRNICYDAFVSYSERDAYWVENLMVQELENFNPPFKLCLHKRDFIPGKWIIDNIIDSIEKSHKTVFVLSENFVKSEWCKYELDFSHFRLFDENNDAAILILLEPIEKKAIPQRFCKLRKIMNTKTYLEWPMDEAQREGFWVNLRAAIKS
Protocol: HEK293 cells expressing human TLR2 receptor and its reporter gene (InvivoGen, hkb-htlr2) were seeded in a 96-well plate and treated by […] (31-317) or mutant recombinant Amuc_1100 (31-317, Y289A). The reporter gene activity was detected by QUANTI-Blue™ (InvivoGen, rep-qbs2), and the cell viability was detected by CellTiterGlo (Promega, G7573) by following the reagent kits' instruction. The results were shown in FIG. 3B (Pam3CSK4 is the positive control for TLR2 ligand). […] All agents show no significant impact on cell viability.

TLR2 [5] = biological target: T1, TLR2; assay: TLR2 reporter assay of Amuc_1100 secreted from engineered EcN; type: cell-based; parameters: expressed in transfected cells; host or cells: HEK293; details: HEK293/TLR2 reporter cells, 24 hours, colorimetric; protein isolated from CBT1108 culture media; FIG. 17
Protocol: The genetically engineered bacteria EcN strain CBT1108 obtained in Example 6 were cultured, and the culture media was collected at late exponential growth stage. The […] (31-317) protein was isolated from the culture media by his-tag antibody-containing resin column. The endotoxin was removed from the isolated Amuc_1100 (31-317) protein.
The Amuc_1100 (31-317) activity was tested by TLR2 reporter assay. Specifically, HEK293/TLR2 reporter cells were stimulated in 96-well plate with certain amount of protein for 24 hours, the reporter enzyme's substrate was added into the cell media and the activity was measured by colorimetric method.

| Molecule | resistance to enzyme digestion [1] | tumor growth inhibition [2] | changes in body weights [3] | EC50 for TLR2 activation (TLR2 [4]) [µg/mL] | TLR2 signal stimulation (TLR2 [5]) |
| --- | --- | --- | --- | --- | --- |
| Amuc_1100 (31-317, Y289A): Amuc_1100 (31-317) mutant protein with single point mutation Y289A, numbering relative to SEQ ID NO: 1 (protein) MIVNSKRSELDKKISIAAKEIKSANAAEITPSRSSNEELEKELNRYAKAVGSLETAYKPFLASSALVPTTPTAFQNELKTFRDSLISSCKKKNILITDTSSWLGFQVYSTQAPSVQAASTLGFELKAINSLVNKLAECGLSKFIKVYRPQLPIETPANNPEESDEADQAPWTPMPLEIAFQGDRESVLKAMNAITGMQDYLFTVNSIRIRNERMMPPPIANPAAAKPAAAQPATGAASLTPADEAAAPAAPAIQQVIKPAMGKEQVFVQVSLNLVHFNQPKAQEPSED | more resistant to enzyme digestion compared to wild type Amuc_1100 protein | partially inhibited tumor growth | no significant changes in body weights | 0.951 |  |
| Amuc_1100 (31-317): Naturally-occurring fragment (residues 31-317) of Akkermansia muciniphila outer-membrane protein Amuc_1100; recombinant protein (protein) MIVNSKRSELDKKISIAAKEIKSANAAEITPSRSSNEELEKELNRYAKAVGSLETAYKPFLASSALVPTTPTAFQNELKTFRDSLISSCKKKNILITDTSSWLGFQVYSTQAPSVQAASTLGFELKAINSLVNKLAECGLSKFIKVYRPQLPIETPANNPEESDEADQAPWTPMPLEIAFQGDRESVLKAMNAITGMQDYLFTVNSIRIRNERMMPPPIANPAAAKPAAAQPATGAASLTPADEAAAPAAPAIQQVIKPYMGKEQVFVQVSLNLVHFNQPKAQEPSED |  | partially inhibited tumor growth | no significant changes in body weights | 0.535 |  |
| secreted Amuc_1100 (31-317) from genetically engineered EcN: Amuc_1100 protein isolated from culture media of EcN strain CBT1108 by his-tag antibody resin, endotoxin removed (protein) MIVNSKRSELDKKISIAAKEIKSANAAEITPSRSSNEELEKELNRYAKAVGSLETAYKPFLASSALVPTTPTAFQNELKTFRDSLISSCKKKNILITDTSSWLGFQVYSTQAPSVQAASTLGFELKAINSLVNKLAECGLSKFIKVYRPQLPIETPANNPEESDEADQAPWTPMPLEIAFQGDRESVLKAMNAITGMQDYLFTVNSIRIRNERMMPPPIANPAAAKPAAAQPATGAASLTPADEAAAPAAPAIQQVIKPYMGKEQVFVQVSLNLVHFNQPKAQEPSED |  |  |  |  | stimulated TLR2 signal |
